Measured values as given in patent publication US20250289897A1 (Eli Lilly, published 2025).

T1: human FcγRIIA_131R (CD32a) extracellular domain (human, UniProt P12318 34-217)
T1 construct: extracellular domain
T1 sequence (looked up): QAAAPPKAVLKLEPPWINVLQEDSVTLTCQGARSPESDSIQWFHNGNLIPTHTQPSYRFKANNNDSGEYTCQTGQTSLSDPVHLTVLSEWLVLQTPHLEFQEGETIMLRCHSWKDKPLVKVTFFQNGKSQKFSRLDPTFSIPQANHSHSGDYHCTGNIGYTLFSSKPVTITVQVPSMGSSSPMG

T2: human FcγRIIb (CD32b) extracellular domain (human, UniProt P31994 43-217)
T2 construct: extracellular domain
T2 sequence (looked up): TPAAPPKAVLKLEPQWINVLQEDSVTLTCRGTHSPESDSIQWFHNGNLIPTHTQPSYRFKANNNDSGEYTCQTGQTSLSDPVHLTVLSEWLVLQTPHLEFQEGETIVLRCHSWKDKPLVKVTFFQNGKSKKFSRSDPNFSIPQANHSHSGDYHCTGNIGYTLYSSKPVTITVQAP

T3: human LEPR, full length, on HEK293-STAT3Luc-hLepR1 cells (Homo sapiens, UniProt P48357 22-1165)
T3 construct: also called human LEPR on live cell surface
T3 sequence: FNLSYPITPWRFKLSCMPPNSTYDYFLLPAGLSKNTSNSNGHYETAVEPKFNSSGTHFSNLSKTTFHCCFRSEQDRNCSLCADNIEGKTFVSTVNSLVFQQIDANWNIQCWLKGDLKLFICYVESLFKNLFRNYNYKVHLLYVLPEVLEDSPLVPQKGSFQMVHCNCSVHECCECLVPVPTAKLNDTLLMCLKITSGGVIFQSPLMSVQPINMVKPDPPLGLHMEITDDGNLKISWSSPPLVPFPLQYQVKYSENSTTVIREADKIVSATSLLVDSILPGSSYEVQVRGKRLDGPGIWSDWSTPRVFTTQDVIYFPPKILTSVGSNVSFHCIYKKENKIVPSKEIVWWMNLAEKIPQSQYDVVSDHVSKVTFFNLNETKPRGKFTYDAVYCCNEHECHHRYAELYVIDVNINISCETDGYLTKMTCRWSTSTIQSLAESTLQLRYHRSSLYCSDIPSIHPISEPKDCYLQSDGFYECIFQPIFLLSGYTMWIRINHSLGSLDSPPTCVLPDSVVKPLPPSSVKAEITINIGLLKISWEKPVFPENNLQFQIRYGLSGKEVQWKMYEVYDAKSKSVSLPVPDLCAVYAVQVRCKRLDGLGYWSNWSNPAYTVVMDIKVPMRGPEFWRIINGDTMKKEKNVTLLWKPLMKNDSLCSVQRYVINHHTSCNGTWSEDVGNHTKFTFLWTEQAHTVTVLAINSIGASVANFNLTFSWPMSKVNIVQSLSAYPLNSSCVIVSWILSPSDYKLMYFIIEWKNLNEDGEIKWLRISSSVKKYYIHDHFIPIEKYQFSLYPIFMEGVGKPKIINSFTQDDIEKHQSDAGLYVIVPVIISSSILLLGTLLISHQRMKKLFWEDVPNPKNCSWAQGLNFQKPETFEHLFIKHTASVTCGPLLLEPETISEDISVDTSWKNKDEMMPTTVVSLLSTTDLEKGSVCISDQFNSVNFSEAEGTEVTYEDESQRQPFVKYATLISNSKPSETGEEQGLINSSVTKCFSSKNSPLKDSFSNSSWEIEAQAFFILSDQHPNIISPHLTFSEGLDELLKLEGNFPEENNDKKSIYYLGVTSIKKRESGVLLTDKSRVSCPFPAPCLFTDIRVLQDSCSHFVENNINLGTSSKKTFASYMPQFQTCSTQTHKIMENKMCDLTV

T4: CYNO LEPR-ECD-His (cynomolgus monkey, UniProt Q9MYL0 22-837 (rhesus entry))
T4 construct: also called cynomolgus monkey LEPR
T4 sequence: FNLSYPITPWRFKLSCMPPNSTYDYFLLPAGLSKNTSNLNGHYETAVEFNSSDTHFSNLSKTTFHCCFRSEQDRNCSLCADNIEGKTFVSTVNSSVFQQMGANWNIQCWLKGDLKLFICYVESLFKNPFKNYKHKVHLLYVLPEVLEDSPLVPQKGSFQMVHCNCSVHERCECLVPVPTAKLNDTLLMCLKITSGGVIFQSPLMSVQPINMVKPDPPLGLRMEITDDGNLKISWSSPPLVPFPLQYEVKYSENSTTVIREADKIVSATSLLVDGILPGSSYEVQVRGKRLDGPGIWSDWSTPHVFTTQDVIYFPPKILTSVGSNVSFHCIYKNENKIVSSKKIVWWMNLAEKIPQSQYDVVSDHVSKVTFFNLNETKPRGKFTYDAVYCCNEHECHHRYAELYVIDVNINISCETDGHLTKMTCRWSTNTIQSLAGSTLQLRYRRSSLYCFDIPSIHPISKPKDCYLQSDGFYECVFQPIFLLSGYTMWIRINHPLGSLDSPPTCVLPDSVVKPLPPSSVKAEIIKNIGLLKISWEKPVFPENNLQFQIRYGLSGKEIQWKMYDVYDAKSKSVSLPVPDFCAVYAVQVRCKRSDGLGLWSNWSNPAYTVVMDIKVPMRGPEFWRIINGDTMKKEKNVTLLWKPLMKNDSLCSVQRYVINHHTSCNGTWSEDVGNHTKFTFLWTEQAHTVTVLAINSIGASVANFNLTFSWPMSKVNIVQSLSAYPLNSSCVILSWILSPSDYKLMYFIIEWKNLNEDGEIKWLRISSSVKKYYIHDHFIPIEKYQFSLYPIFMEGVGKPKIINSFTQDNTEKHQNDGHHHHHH


Legend:
[1] = target: T5, human FcγRIIIA_158F (CD16a) extracellular domain (human, UniProt P08637 17-208); experiment: SPR at 25 C, antibody captured on Protein A chip
T5 construct: extracellular domain
Experimental: (§1) Briefly, the surfaces of all 4 flow cells were activated by injecting a 1:1 mixture of EDC/NHS for 7 minutes at 10 μL/minute. […] Un-reacted sites were blocked with a 7-minute injection of ethanolamine at 10 μL/minute. Injections of 2×10 μL of glycine pH 1.5 were used to remove any noncovalently associated protein.
(§2) For FcγRI binding, antibodies were diluted to 2.5 g/mL in running buffer (1x HBS-EP+, Teknova P/N H8022), and approximately 150 RU of each antibody was captured in flow cells 2 through 4 (RUcaptured). FC1 was the reference flow cell, therefore, no antibody was captured in FC1. […] Duplicate injections of each concentration were injected over all FCs at 40 μL/minute for 120 seconds followed by a 1200 second dissociation phase. Regeneration was performed by injecting 15 μL of 10 mM glycine pH 1.5 at 30 μL/minute over all FCs. Reference-subtracted data was collected as FC2-FC1, FC3-FC1, and FC4-FC1. The measurements were obtained at 25° C. The affinity (KD) was calculated using either steady state equilibrium analysis with the Scrubber 2 Biacore® Evaluation Software or a “1:1 (Langmuir) binding” model in BIA Evaluation.
(§3) For FcγRIIa, FcγRIIb, and FcγRIIIa binding, antibodies were diluted to 5 μg/mL in running buffer, and approximately 500 RU is captured in flow cells 2 through 4 (RUcaptured). FC1 is the reference flow cell. […] Duplicate injections of each concentration were injected over all FCs at 40 L/minute for 60 seconds followed by a 120 second dissociation phase. Regeneration was performed by injecting 15μL of 10 mM glycine pH 1.5 at 30 μL/minute over all FCs.

[2] = target: T1, human FcγRIIA_131R (CD32a) …; experiment: SPR at 25 C, antibody captured on Protein A chip
Experimental: as §1, §2, §3

[3] = target: T6, human FcγRI (CD64) extracellular domain (human, UniProt P12314 16-292); experiment: SPR at 25 C, antibody captured on Protein A chip
T6 construct: extracellular domain; also called FcγRI ECD
Experimental: as §1, §2, §3

[4] = target: T7, human FcγRIIIA_158V (CD16a) extracellular domain (human, UniProt P08637 17-208); experiment: SPR at 25 C, antibody captured on Protein A chip
T7 construct: extracellular domain
Experimental: as §1, §2, §3

[5] = target: T2, human FcγRIIb (CD32b) extracellular …; experiment: SPR at 25 C, antibody captured on Protein A chip
Experimental: as §1, §2, §3

[6] = target: T3, human LEPR, full length, on …; experiment: flow cytometry on live HEK293-STAT3Luc-hLepR1 cells, AF647 anti-human IgG; average of 4 runs, SD 1.7
Experimental: Cells were incubated in blocking buffer for 10 mins at room temperature. After one rinse with PBS, cells were transferred to U-bottom 96-well plate at 200 μL and 0.2˜0.26^e6 cells/well. […] Cells were then incubated with 30 μL/well of antibodies diluted in flow buffer at 1000 nM as high dose followed by 9-point dose response including 5-fold dilutions not including 0 (totaling 9 concentrations for each Antibody) for 30 minutes at 4° C. in dark.

CYNO LEPR-ECD-His = target: T4, CYNO LEPR-ECD-His; experiment: SPR (Biacore T200), antibody captured on Protein A/G chip, His-tagged LEPR-ECD as analyte, 1:1 fit; mean n=4, SD 2.6E-8
Experimental: His-tagged ECDs were expressed and purified for each species and used for affinity analysis. A Protein A/G chip (Xantec, Cat #PAGHC200M) was utilized in this experiment with HBS-EP +0.01% BSA as running buffer. Antibodies were diluted to 1 μg/mL in running buffer and captured to a single flow cell on the chip surface. Each species of LEPR-ECD was diluted to 1000 nM in running buffer followed by 2-fold serial dilution. Each ligand concentration was injected over all flow cells at 100 L/min for 150 seconds followed by a 600 second dissociation phase. Regeneration was performed by injecting 10 mM glycine pH1.5 for 30 seconds at 10 μL/min. Data were analyzed in Biacore T200 Evaluation Software 3.1 by flow-cell 1 reference subtraction along with 0 nM blank subtraction. Data were fit globally using a “1:1 Binding” binding model to determine the on-rate (kₐ) and off-rate (kd) for each ligand. The affinity (KD) was calculated from the binding kinetics according to the relationship KD=kₐ/kd. Data reported as mean±standard deviation of experimental replicates.

T5 sequence (P08637 17-208): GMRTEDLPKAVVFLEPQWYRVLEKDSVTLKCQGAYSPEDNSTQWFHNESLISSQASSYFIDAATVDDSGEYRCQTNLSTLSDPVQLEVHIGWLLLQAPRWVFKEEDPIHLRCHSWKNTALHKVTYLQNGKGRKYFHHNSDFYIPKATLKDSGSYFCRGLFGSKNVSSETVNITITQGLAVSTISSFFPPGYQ
T7 sequence (P08637 17-208 F176V): as the sequence (P08637 17-208) above, with F160V counted along it
T6 sequence (P12314 16-292): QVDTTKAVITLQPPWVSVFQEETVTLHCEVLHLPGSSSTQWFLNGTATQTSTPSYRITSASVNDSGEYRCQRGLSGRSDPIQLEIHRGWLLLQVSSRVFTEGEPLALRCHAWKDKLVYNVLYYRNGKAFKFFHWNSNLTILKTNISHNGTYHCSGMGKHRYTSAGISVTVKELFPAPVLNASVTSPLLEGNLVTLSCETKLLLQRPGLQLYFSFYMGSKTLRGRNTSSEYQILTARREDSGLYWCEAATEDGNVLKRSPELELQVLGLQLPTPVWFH

EC50 [6] | Kd (CYNO LEPR-ECD-His) | Binder | binding result [1] | binding result [2] | binding result [3] | binding result [4] | binding result [5]
2.45 nM |  | Antibody A (antibody, human IgG1, kappa, L234A L235A, IgG1 mAb) heavy: EVQLLESGGGLVQPGGSLRLSCAASGFTFSSFAMSWVRQAPGKGLEWVSAISGSGGSTYSADSVRGRFTISRDNSKNTLYLQMNSLRAEDTAVYYCAKDQGDWDFLFDYWGQGTLVTVSSASTKGPSVFPLAPSSKSTSGGTAALGCLVKDYFPEPVTVSWNSGALTSGVHTFPAVLQSSGLYSLSSVVTVPSSSLGTQTYICNVNHKPSNTKVDKRVEPKSCDKTHTCPPCPAPEAAGGPSVFLFPPKPKDTLYITREPEVTCVVVSVSHEDPEVKFNWYVDGVEVHNAKTKPREEQYNSTYRVVSVLTVLHQDWLNGKEYKCKVSNKALPAPIEKTISKAKGQPREPQVYTLPPSREEMTKNQVSLTCLVKGFYPSDIAVEWESNGQPENNYKTTPPVLDSDGSFFLYSKLTVDKSRWQQGNVFSCSVMHEALHNHYTQKSLSLSPGK light: DIQMTQSPSFLSASVGDRVTITCRASQGISSSLAWYQQKPGKAPKLLIYTASTLQSGVPSRFSGSGSGTEFTLTISSLQPEDFATYYCQQLIYYPFTFGQGTKVEIKRTVAAPSVFIFPPSDEQLKSGTASVVCLLNNFYPREAKVQWKVDNALQSGNSQESVTEQDSKDSTYSLSSTLTLSKADYEKHKVYACEVTHQGLSSPVTKSFNRGEC | no binding (tested: receptor ECD tested up to 10 µM) | no binding (tested: receptor ECD tested up to 10 µM) | no binding (tested: FcγRI ECD tested up to 200 nM) | no binding (tested: receptor ECD tested up to 10 µM) | no binding (tested: receptor ECD tested up to 10 µM)
 | 47 nM | Antibody C (antibody, human IgG1, kappa, L234A L235A, V domains shown) VH: EVQLLESGGGLVQPGGSLRLSCAASGFTFSSFAMSWVRQAPGKGLEWVSAISGSGGSTYSADSVRGRFTISRDNSKNTLYLQMNSLRAEDTAVYYCAKDQGDWDFLFDYWGQGTLVTVSS VL: DIQMTQSPSFLSASVGDRVTITCRASQGISSSLAWYQQKPGKAPKLLIYTASTLQSGVPSRFSGSGSGTEFTLTISSLQPEDFATYYCQQLNYYPFSFGQGTKVEIKR |  |  |  |  | 
